Laboratory results from paper PMC7555306, “Domain Organization in Plant Blue-Light Receptor Phototropin2 of Arabidopsis thaliana Studied by Small-Angle X-ray Scattering” (International Journal of Molecular Sciences, 2020).

B1: LOV1 fragment of Arabidopsis thaliana phototropin2 (domain or fragment, UniProt P93025 117-265, looked up)
chain: FPRVSQELKTALSTLQQTFVVSDATQPHCPIVYASSGFFTMTGYSSKEIVGRNCRFLQGPDTDKNEVAKIRDCVKNGKSYCGRLLNYKKDGTPFWNLLTVTPIKDDQGNTIKFIGMQVEVSKYTEGVNDKALRPNGLSKSLIRYDARQK
notes: phototropin2 (phot2), Arabidopsis thaliana, LOV1 fragment, residues 117-265 of the 915-residue protein; also called phot2 LOV1
B2: Asp720Asn-mutated full-length phototropin2 of Arabidopsis thaliana (natural protein)
chain: MERPRAPPSPLNDAESLSERRSLEIFNPSSGKETHGSTSSSSKPPLDGNNKGSSSKWMEFQDSAKITERTAEWGLSAVKPDSGDDGISFKLSSEVERSKNMSRRSSEESTSSESGAFPRVSQELKTALSTLQQTFVVSDATQPHCPIVYASSGFFTMTGYSSKEIVGRNCRFLQGPDTDKNEVAKIRDCVKNGKSYCGRLLNYKKDGTPFWNLLTVTPIKDDQGNTIKFIGMQVEVSKYTEGVNDKALRPNGLSKSLIRYDARQKEKALDSITEVVQTIRHRKSQVQESVSNDTMVKPDSSTTPTPGRQTRQSDEASKSFRTPGRVSTPTGSKLKSSNNRHEDLLRMEPEELMLSTEVIGQRDSWDLSDRERDIRQGIDLATTLERIEKNFVISDPRLPDNPIIFASDSFLELTEYSREEILGRNCRFLQGPETDQATVQKIRDAIRDQREITVQLINYTKSGKKFWNLFHLQPMRDQKGELQYFIGVQLDGSDHVEPLQNRLSERTEMQSSKLVKATATNVDEAVRELPDANTRPEDLWAAHSKPVYPLPHNKESTSWKAIKKIQASGETVGLHHFKPIKPLGSGDTGSVHLVELKGTGELYAMKAMEKTMMLNRNKAHRACIEREIISLLDHPFLPTLYASFQTSTHVCLITDFCPGGELFALLDRQPMKILTEDSARFYAAEVVIGLEYLHCLGIVYRDLKPENILLKKDGHIVLANFDLSFMTTCTPQLIIPAAPSKRRRSKSQPLPTFVAEPSTQSNSFVGTEEYIAPEIITGAGHTSAIDWWALGILLYEMLYGRTPFRGKNRQKTFANILHKDLTFPSSIPVSLVGRQLINTLLNRDPSSRLGSKGGANEIKQHAFFRGINWPLIRGMSPPPLDAPLSIIEKDPNAKDIKWEDDGVLVNSTDLDIDLF
notes: phototropin2 (phot2), Arabidopsis thaliana, full length, residues 1-915, with Asp720Asn; also called phot2; full-length phot2

Molecular target: the molecule itself
Assay: SAXS; in solution at 293 K, at least three specimen concentrations, extrapolated to infinite dilution; in the dark (D450), under blue-light irradiation (S390) and after dark reversion; apparent molecular weight from I(S=0,C=0) against hen egg-white lysozyme or the buffer's scattering

Protein	stoichiometry N
B1	2
B2	2
